Values of other authors as cited in patent publication US8623366B2, “Methods for treating visceral pain by administering antagonist antibodies directed against calcitonin gene-related peptide” (Labrys Biologics, Inc., priority 2009, dated 2014).

Tests used:
[1] = biological target: T1, human α-CGRP (Homo sapiens, UniProt P06881); conditions: Table 6 reproduced from WO2007/054809; cited from earlier work
T1 sequence (P06881 83-119 limits assumed): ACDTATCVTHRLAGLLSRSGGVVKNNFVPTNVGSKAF

[2] = biological target: T2, α-rat CGRP (Rattus norvegicus, UniProt P01256); conditions: Table 6 reproduced from WO2007/054809; cited from earlier work
T2 sequence (P01256 83-119 limits assumed): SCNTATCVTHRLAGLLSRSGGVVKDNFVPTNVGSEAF

Molecule	Kd [1] [nM]	Kd [2] [nM]
M18: G1 variant: HC-FW3 L99V A100G [Clone M18]	0.44	67.8
M8: G1 variant: HC-FW3 L99N A100G [Clone M8]	0.58	41.4
M15: G1 variant: HC-FW3 L99T A100P [Clone M15]	0.1	63.9
M10: G1 variant: HC-FW3 L99S A100S [Clone M10]	1.08	83.9
M2: G1 variant: HC-FW3 L99A A100R [Clone M2]	3	58
M46: G1 variant: L1 R28N; L2 G50A L56T; H2 E54K A57N S58E H61F; HC-FW3 L99T A100V (antibody, chains of the INN, looked up, variant L:R28N L:G50A L:L56T H:E54K H:A57N H:S58E H:H61F H:L99T H:A100V, V domains shown) VH: EVQLVESGGGLVQPGGSLRLSCAASGFTFSNYWISWVRQAPGKGLEWVAEIRSKSDNEATFYAEAVKGRFTISRDNAKNSLYLQMNSLRAEDTAVYYCTVYFDYGLAIQNYWGQGTLVTVSS VL: EIVLTQSPATLSLSPGERATLSCKASKNVTTYVSWYQQKPGQAPRLLIYAASNRYTGIPARFSGSGSGTDFTLTISSLEPEDFAVYYCSQSYNYPYTFGQGTKLEIK	3.37	163
M75: G1 variant: L1 R28N T30G; L2 L56S; H2 E54K A57V; HC-FW3 L99T A100V (antibody, chains of the INN, looked up, variant L:R28N L:T30G L:L56S H:E54K H:A57V H:L99T H:A100V, V domains shown) VH: EVQLVESGGGLVQPGGSLRLSCAASGFTFSNYWISWVRQAPGKGLEWVAEIRSKSDVSATHYAEAVKGRFTISRDNAKNSLYLQMNSLRAEDTAVYYCTVYFDYGLAIQNYWGQGTLVTVSS VL: EIVLTQSPATLSLSPGERATLSCKASKNVGTYVSWYQQKPGQAPRLLIYGASNRYSGIPARFSGSGSGTDFTLTISSLEPEDFAVYYCSQSYNYPYTFGQGTKLEIK	7.25	1040
M74: G1 variant: L1 R28N T30G; L2 L56S; H2 E54K A57S; HC-FW3 L99T A100V (antibody, chains of the INN, looked up, variant L:R28N L:T30G L:L56S H:E54K H:A57S H:L99T H:A100V, V domains shown) VH: EVQLVESGGGLVQPGGSLRLSCAASGFTFSNYWISWVRQAPGKGLEWVAEIRSKSDSSATHYAEAVKGRFTISRDNAKNSLYLQMNSLRAEDTAVYYCTVYFDYGLAIQNYWGQGTLVTVSS VL: EIVLTQSPATLSLSPGERATLSCKASKNVGTYVSWYQQKPGQAPRLLIYGASNRYSGIPARFSGSGSGTDFTLTISSLEPEDFAVYYCSQSYNYPYTFGQGTKLEIK	3.73	335
M49: G1 variant: L1 R28N; L2 G50A L56T; H2 E54K A57N S58Y H61F; HC-FW3 L99T A100V (antibody, chains of the INN, looked up, variant L:R28N L:G50A L:L56T H:E54K H:A57N H:S58Y H:H61F H:L99T H:A100V, V domains shown) VH: EVQLVESGGGLVQPGGSLRLSCAASGFTFSNYWISWVRQAPGKGLEWVAEIRSKSDNYATFYAEAVKGRFTISRDNAKNSLYLQMNSLRAEDTAVYYCTVYFDYGLAIQNYWGQGTLVTVSS VL: EIVLTQSPATLSLSPGERATLSCKASKNVTTYVSWYQQKPGQAPRLLIYAASNRYTGIPARFSGSGSGTDFTLTISSLEPEDFAVYYCSQSYNYPYTFGQGTKLEIK	3.72	822
M69: G1 variant: L1 R28N T30G; L2 L56I; H2 E54K A57N S58E; HC-FW3 L99T A100V (antibody, chains of the INN, looked up, variant L:R28N L:T30G L:L56I H:E54K H:A57N H:S58E H:L99T H:A100V, V domains shown) VH: EVQLVESGGGLVQPGGSLRLSCAASGFTFSNYWISWVRQAPGKGLEWVAEIRSKSDNEATHYAEAVKGRFTISRDNAKNSLYLQMNSLRAEDTAVYYCTVYFDYGLAIQNYWGQGTLVTVSS VL: EIVLTQSPATLSLSPGERATLSCKASKNVGTYVSWYQQKPGQAPRLLIYGASNRYIGIPARFSGSGSGTDFTLTISSLEPEDFAVYYCSQSYNYPYTFGQGTKLEIK	4.58	101
M83: G1 variant: L1 R28N T30V; L2 A51H L56T; H2 E54K A57N S58M H61F; HC-FW3 L99T A100V (antibody, chains of the INN, looked up, variant L:R28N L:T30V L:A51H L:L56T H:E54K H:A57N H:S58M H:H61F H:L99T H:A100V, V domains shown) VH: EVQLVESGGGLVQPGGSLRLSCAASGFTFSNYWISWVRQAPGKGLEWVAEIRSKSDNMATFYAEAVKGRFTISRDNAKNSLYLQMNSLRAEDTAVYYCTVYFDYGLAIQNYWGQGTLVTVSS VL: EIVLTQSPATLSLSPGERATLSCKASKNVVTYVSWYQQKPGQAPRLLIYGHSNRYTGIPARFSGSGSGTDFTLTISSLEPEDFAVYYCSQSYNYPYTFGQGTKLEIK	5.83	
M62: G1 variant: L1 R28N T30G; L2 A51H L56T; H2 E54K A57N S58E; HC-FW3 L99T A100V (antibody, chains of the INN, looked up, variant L:R28N L:T30G L:A51H L:L56T H:E54K H:A57N H:S58E H:L99T H:A100V, V domains shown) VH: EVQLVESGGGLVQPGGSLRLSCAASGFTFSNYWISWVRQAPGKGLEWVAEIRSKSDNEATHYAEAVKGRFTISRDNAKNSLYLQMNSLRAEDTAVYYCTVYFDYGLAIQNYWGQGTLVTVSS VL: EIVLTQSPATLSLSPGERATLSCKASKNVGTYVSWYQQKPGQAPRLLIYGHSNRYTGIPARFSGSGSGTDFTLTISSLEPEDFAVYYCSQSYNYPYTFGQGTKLEIK	5.86	242
M55: G1 variant: L1 R28N T30A; L2 L56S; H2 E54K A57N S58E E64D; HC-FW3 L99T A100V (antibody, chains of the INN, looked up, variant L:R28N L:T30A L:L56S H:E54K H:A57N H:S58E H:E64D H:L99T H:A100V, V domains shown) VH: EVQLVESGGGLVQPGGSLRLSCAASGFTFSNYWISWVRQAPGKGLEWVAEIRSKSDNEATHYADAVKGRFTISRDNAKNSLYLQMNSLRAEDTAVYYCTVYFDYGLAIQNYWGQGTLVTVSS VL: EIVLTQSPATLSLSPGERATLSCKASKNVATYVSWYQQKPGQAPRLLIYGASNRYSGIPARFSGSGSGTDFTLTISSLEPEDFAVYYCSQSYNYPYTFGQGTKLEIK	2.99	325
M47: G1 variant: L1 R28N; L2 G50A L56T; H2 E54K A57N S58G; HC-FW3 L99T A100V (antibody, chains of the INN, looked up, variant L:R28N L:G50A L:L56T H:E54K H:A57N H:S58G H:L99T H:A100V, V domains shown) VH: EVQLVESGGGLVQPGGSLRLSCAASGFTFSNYWISWVRQAPGKGLEWVAEIRSKSDNGATHYAEAVKGRFTISRDNAKNSLYLQMNSLRAEDTAVYYCTVYFDYGLAIQNYWGQGTLVTVSS VL: EIVLTQSPATLSLSPGERATLSCKASKNVTTYVSWYQQKPGQAPRLLIYAASNRYTGIPARFSGSGSGTDFTLTISSLEPEDFAVYYCSQSYNYPYTFGQGTKLEIK	2.08	457
M77: G1 variant: L1 R28N T30S; L2 G50A L56T; H2 E54K A57D; HC-FW3 L99T A100V (antibody, chains of the INN, looked up, variant L:R28N L:T30S L:G50A L:L56T H:E54K H:A57D H:L99T H:A100V, V domains shown) VH: EVQLVESGGGLVQPGGSLRLSCAASGFTFSNYWISWVRQAPGKGLEWVAEIRSKSDDSATHYAEAVKGRFTISRDNAKNSLYLQMNSLRAEDTAVYYCTVYFDYGLAIQNYWGQGTLVTVSS VL: EIVLTQSPATLSLSPGERATLSCKASKNVSTYVSWYQQKPGQAPRLLIYAASNRYTGIPARFSGSGSGTDFTLTISSLEPEDFAVYYCSQSYNYPYTFGQGTKLEIK	2.98	794
M71: G1 variant: L1 R28N T30G; L2 L56I; H2 E54K A57Y; HC-FW3 L99T A100V (antibody, chains of the INN, looked up, variant L:R28N L:T30G L:L56I H:E54K H:A57Y H:L99T H:A100V, V domains shown) VH: EVQLVESGGGLVQPGGSLRLSCAASGFTFSNYWISWVRQAPGKGLEWVAEIRSKSDYSATHYAEAVKGRFTISRDNAKNSLYLQMNSLRAEDTAVYYCTVYFDYGLAIQNYWGQGTLVTVSS VL: EIVLTQSPATLSLSPGERATLSCKASKNVGTYVSWYQQKPGQAPRLLIYGASNRYIGIPARFSGSGSGTDFTLTISSLEPEDFAVYYCSQSYNYPYTFGQGTKLEIK		118
M65: G1 variant: L1 R28N T30G; L2 G50A L56I; H2 E54K A57C; HC-FW3 L99T A100V (antibody, chains of the INN, looked up, variant L:R28N L:T30G L:G50A L:L56I H:E54K H:A57C H:L99T H:A100V, V domains shown) VH: EVQLVESGGGLVQPGGSLRLSCAASGFTFSNYWISWVRQAPGKGLEWVAEIRSKSDCSATHYAEAVKGRFTISRDNAKNSLYLQMNSLRAEDTAVYYCTVYFDYGLAIQNYWGQGTLVTVSS VL: EIVLTQSPATLSLSPGERATLSCKASKNVGTYVSWYQQKPGQAPRLLIYAASNRYIGIPARFSGSGSGTDFTLTISSLEPEDFAVYYCSQSYNYPYTFGQGTKLEIK	5.02	226
M73: G1 variant: L1 R28N T30G; L2 L56S; H2 E54K A57N S58Y E64D; HC-FW3 L99T A100V (antibody, chains of the INN, looked up, variant L:R28N L:T30G L:L56S H:E54K H:A57N H:S58Y H:E64D H:L99T H:A100V, V domains shown) VH: EVQLVESGGGLVQPGGSLRLSCAASGFTFSNYWISWVRQAPGKGLEWVAEIRSKSDNYATHYADAVKGRFTISRDNAKNSLYLQMNSLRAEDTAVYYCTVYFDYGLAIQNYWGQGTLVTVSS VL: EIVLTQSPATLSLSPGERATLSCKASKNVGTYVSWYQQKPGQAPRLLIYGASNRYSGIPARFSGSGSGTDFTLTISSLEPEDFAVYYCSQSYNYPYTFGQGTKLEIK	1.59	167
M67: G1 variant: L1 R28N T30G; L2 L56I; H2 E54K A57F; HC-FW3 L99T A100V (antibody, chains of the INN, looked up, variant L:R28N L:T30G L:L56I H:E54K H:A57F H:L99T H:A100V, V domains shown) VH: EVQLVESGGGLVQPGGSLRLSCAASGFTFSNYWISWVRQAPGKGLEWVAEIRSKSDFSATHYAEAVKGRFTISRDNAKNSLYLQMNSLRAEDTAVYYCTVYFDYGLAIQNYWGQGTLVTVSS VL: EIVLTQSPATLSLSPGERATLSCKASKNVGTYVSWYQQKPGQAPRLLIYGASNRYIGIPARFSGSGSGTDFTLTISSLEPEDFAVYYCSQSYNYPYTFGQGTKLEIK	5.13	95
M51: G1 variant: L1 R28N; L2 L56I; H2 E54K A57G; HC-FW3 L99T A100V (antibody, chains of the INN, looked up, variant L:R28N L:L56I H:E54K H:A57G H:L99T H:A100V, V domains shown) VH: EVQLVESGGGLVQPGGSLRLSCAASGFTFSNYWISWVRQAPGKGLEWVAEIRSKSDGSATHYAEAVKGRFTISRDNAKNSLYLQMNSLRAEDTAVYYCTVYFDYGLAIQNYWGQGTLVTVSS VL: EIVLTQSPATLSLSPGERATLSCKASKNVTTYVSWYQQKPGQAPRLLIYGASNRYIGIPARFSGSGSGTDFTLTISSLEPEDFAVYYCSQSYNYPYTFGQGTKLEIK	0.82	65.6
